“And” between values parts separate entries of the source, which are not always exact repeats. Equal values may be shown once.

By Kd is commonly meant the free concentration of one partner at which half of the binding sites on the other are occupied at equilibrium, for simple one-to-one binding. Broadly, the koff is a measure of how fast the partners let go of each other. Lower therefore signals slow dissociation.

The labels stand for the following.
T1: Lec domain of ADGRL3 (human, UniProt Q9HAR2 24-126, biotin on the Avi-tag (BirA) in the flow cytometry experiments)
T1 chain: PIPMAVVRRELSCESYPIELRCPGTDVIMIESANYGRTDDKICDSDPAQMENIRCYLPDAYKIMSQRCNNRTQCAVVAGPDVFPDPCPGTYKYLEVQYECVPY

B1: full-length extracellular region (ECR) of ADGRL3 (domain or fragment)
chain 1: FSRAPIPMAVVRRELSCESYPIELRCPGTDVIMIESANYGRTDDKICDSDPAQMENIRCYLPDAYKIMSQRCNNRTQCAVVAGPDVFPDPCPGTYKYLEVQYECVPYKVEQKVFLCPGLLKGVYQSEHLFESDHQSGAWCKDPLQASDKIYYMPWTPYRTDTLTEYSSKDDFIAGRPTTTYKLPHRVDGTGFVVYDGALFFNKERTRNIVKFDLRTRIKSGEAIIANANYHDTSPYRWGGKSDIDLAVDENGLWVIYATEQNNGKIVISQLNPYTLRIEGTWDTAYDKRSASNAFMICGILYVVKSVYEDDDNEATGNKIDYIYNTDQSKDSLVDVPFPNSYQYIAAVDYNPRDNLLYVWNNYHVVKYSLDFGPLDSRSGQAHHGQVSYISPPIHLDSELERPSVKDISTTGPLGMGSTTTSTTLRTTTLSPGRSTTPSVSGRRNRSTSTPSPAVEVLDDMTTHLPSASSQIPALEESCEAVEAREIMWFKTRQGQIAKQPCPAGTIGVSTYLCLAPDGIWDPQGPDLSNCSSPWVNHITQKLKSGETAANIARELAEQTRNHLNAGDITYSVRAMDQLVGLLDVQLRNLTPGGKDSAARSLNKAMVETVNNLLQPQALNAWRDLTTSDQLRAATMLLHTVEESAFVLADNLLKTDIVRENTDNIKLEVARLSTEGNLEDLKFPENMGHGSTIQLSANTLKQNGRNGEIRVAFVLYNNLGPYLSTENASMKLGTEALSTNHSVIVNSPVITAAINKEFSNKVYLADPVVFTVKHIKQSEENFNPNCSFWSYSKRTMTGYWSTQGCRLLTTNKTHTTCSCNHL
chain 2: TNFAVLMAHVEVKHSDAVHDL
modifications: biotin on the Avi-tag (BirA) where used biotinylated
B2: synthetic antibody fragment (sAB) LK30 (Fab, V domains shown)
VH: EVQLVESGGGLVQPGGSLRLSCAASGFNIYYSSIHWVRQAPGKGLEWVAYISPYSGSTSYADSVKGRFTISADTSKNTAYLQMNSLRAEDTAVYYCARYKYGQGHMGAFDYWGQGTLVTVSS
VL: DIQMTQSPSSLSASVGDRVTITCRASQSVSSAVAWYQQKPGKAPKLLIYSASSLYSGVPSRFSGSRSGTDFTLTISSLQPEDFATYYCQQSNTELVTFGQGTKVEIK
B3: ADGRL3 Lec/Olf fragment (domain or fragment)
chain: PIPMAVVRRELSCESYPIELRCPGTDVIMIESANYGRTDDKICDSDPAQMENIRCYLPDAYKIMSQRCNNRTQCAVVAGPDVFPDPCPGTYKYLEVQYECVPYKVEQKVFLCPGLLKGVYQSEHLFESDHQSGAWCKDPLQASDKIYYMPWTPYRTDTLTEYSSKDDFIAGRPTTTYKLPHRVDGTGFVVYDGALFFNKERTRNIVKFDLRTRIKSGEAIIANANYHDTSPYRWGGKSDIDLAVDENGLWVIYATEQNNGKIVISQLNPYTLRIEGTWDTAYDKRSASNAFMICGILYVVKSVYEDDDNEATGNKIDYIYNTDQSKDSLVDVPFPNSYQYIAAVDYNPRDNLLYVWNNYHVVKYSLDFGPLD

In one test the target is LK25. The experiment in a line: ELISA.
For another test, the target named is LK29. The experiment in a line: SPR.
Another test deals with LK12. The experiment in a line: SPR.
For the next test, the target named is LK31. Description: SPR. On the technique in general: In SPR one partner is held on a chip, and binding of the other changes the refractive index at the surface.
Test [1] has as its target B1. Description: SPR.
The target of a further test is T1, Lec domain of ADGRL3. The experiment in a line: SPR.
The target in test [2] is B3. Description: SPR.
Test [3] deals with B1. Description: SPR.
In test [4] the target is B3. Description: SPR.

For B1, the Kd in the test with LK25 was 56.8 nM; with LK29, 4.1 nM; in the test with LK12, 8.3 nM; with LK31 it was 3.8 nM. For the same molecule, the koff with LK29 came to 0.0015 s⁻¹; with LK12, 0.0032 s⁻¹; with LK31 it was 0.002 s⁻¹.

For B2, the koff in test [1] is 0.0058 s⁻¹; in the test with Lec domain of ADGRL3 it was 0.0113 s⁻¹; with ADGRL3 Lec/Olf fragment [2], 0.0066 s⁻¹ and 0.0049 s⁻¹. Moreover, the Kd in test [3] is 4.2 nM; with ADGRL3 Lec/Olf fragment [4], 5.4 nM and 3.7 nM.

As for B3, the Kd was determined as 2.5 nM in the test with LK29, 12.5 nM with LK12 and 3.6 nM in the test with LK31. The koff amounted to 0.001 s⁻¹ with LK29, 0.0099 s⁻¹ with LK12 and 0.0029 s⁻¹ with LK31.

Source of the values: publication PMC9902482 (2023).
